Laboratory results from paper PMC11032465.

Assays:
[1] = target: GhV F I268F/Q287P ectodomain (Ghanaian virus); experiment: negative-stain EM
[2] = target: GhV F I268F/Q287P/S196C/A215C ectodomain (Ghanaian virus); experiment: negative-stain EM

Substance | stoichiometry N [1] | stoichiometry N [2]
GhV F I268F/Q287P ectodomain (domain or fragment) | 3 | –
GhV F I268F/Q287P/S196C/A215C ectodomain (domain or fragment) | – | 3
